Settings in all cases: both partners purified
The target of assay [1] is LC/A2, strep-tag fusion protein (Clostridium botulinum, BoNT/A2 (strain …, UniProt Q45894, strain)). Description: ELISA.
Assay [2] has as its target T1, LC/B1 (light chain protease domain of BoNT/B1), as used in the ELISAs of Table 2 (Clostridium botulinum, BoNT/B1, UniProt P10844). Description: ELISA. In general terms: An ELISA detects its analyte on a solid surface through an enzyme-linked reagent.
Assay [3] deals with T1, LC/B1 (light chain protease domain of …). Nature of the assay: ELISA; dilution ELISA of VHH on LC/B coated to Nunc plastic.
Assay [4] addresses LC/A1 (light chain protease domain of BoNT/A1), as used in the ELISAs of Table 1 (Clostridium botulinum, BoNT/A1, UniProt P0DPI0). Nature of the assay: ELISA.

These results are taken from PMC8769338 (PLoS Pathogens, 2022).

“And” between values parts separate entries of the source, which are not always exact repeats. Identical values can stand only once.

B1: JPU-A5 (VHH)
VHH: QVQLVETGGGLVQAGGSLRLSCTASGADFSFYAMGWYRQTPGNSRELVAVMNLNGVISYGDSARGRFDISRDGTKNIVFLQMNSLKPEDTGVYYCNGMRLYTRGSVRHPESWGQGIQVTVSS
notes: form of the ELISAs; source: pET-32 vector, thioredoxin fusion, purified
B1: the binding result in assay [1] is “binds”.

B2: JLO-G7 (VHH)
VHH: QVQLVESGGGLVQAGGSLRLSCAASGFPFGSYYMSWVRQAPGKGPEWVSDISNGGIITRYSDSVKGRFTISRDNAKNILYLQMNSLKPEDTALYFCATGTGRDWSREYRGQGTQVTVSS
notes: source: pET-32 vector, thioredoxin fusion, purified
Broadly, the EC50 is the concentration at which the effect is half-maximal. A higher EC50 goes with lower potency in that assay. Take B2: a half-maximal effect in assay [2] (EC50) was put at 0.5 nM.

B3: JND-B4 (VHH)
VHH: QVQLVETGGGLVQPGGSLRLSCVASGFTLDSYAIGWFRQAPGKEREGVSCMSSGDGSTYYTNSVKGRFTISRDNAQNTVYLQMNSLKPEDTAVYYCAADGFDYCSAYVPGRGMNYSGKGTLVTVSS
notes: as for B2
With B3, in assay [2], the half-maximal effective concentration (EC50) is 0.8 nM and 0.5 nM.

B4: BLc-B10 (VHH)
VHH: QLQLVESGGGMVQPGGSLRLSCAASGFTFSTYDMSWVRQAPGKGPEWVSIINAGGGSTYYAASVKGRFAISRDNAKNTLYLQMNNLKPEDTALYYCARVASYYCRGYVCSPPEFDYWGQGTQVTVSS
notes: as for B2
Regarding B4, the EC50 was 0.3 nM in assay [3]; 5 nM and 10 nM in assay [2].

B5: JPU-C10 (VHH)
VHH: QLQLVESGGGLVQPGGSLRLSCAASGNIFSIYYMGWYRQAPGKQREMVAIINSNGITNYGDFVKGRFTISRDNAENSAYLQMNNLTPEDTAVYYCNAGKLRRTTGWGLDDYWGQGTQVTVSS
notes: as for B1
Consider B5, for which the binding result in assay [1] is given as “binds”.

B6: ciA-D1 (VHH)
VHH: QVQLVESGGGLVQPGGSLRLSCATSGFTLEYYAIGWFRQAPGKGREGVACMNSSGGGTNYADSVKGRFTISRDNAKKMVYLQMNSLKSEDTAVYYCVVDDFRCGSRWAAYLRSSWGQGTQVTVSS
notes: as for B2
For the molecule B6, the EC50 in assay [4] is 1 nM and 0.4 nM.

B7: JND-E5 (VHH)
VHH: QVQLVESGGLVQPGGSLRLSCAASGFTLDYYGIGWVRQAPGKEREEVSCITSGGLTNYPDSVKGRFTISRDNAKNTVYLQMNSLKPEDTAVYYCAIDRVGVCAMEDFGSWGQGTQVTVSS
notes: as for B2
On to B7, for which the concentration giving a half-maximal response (EC50) in assay [2] was 5 nM and 2 nM.

B8: JND-E9 (VHH)
VHH: QVQLVETGGGLVQAGDSLRLSCAASGRTFNYYAMAWFRQAPGKEREFVAFINWSGDSTYYAGSVKGRFTISRDNAKNTVYLQMNNLKPEDTAVYSCAAEFGTFSYLQGDDYSYWGQGTQVTVSS
notes: as for B2
Consider B8, for which the EC50 in assay [2] was 1 nM and 0.5 nM.

B9: JPU-G11 (VHH)
VHH: QLQLVETGGGLVQPGGSLRLACVASESVFEMYTVAWYRQAPGKQRELVAGITDEGRTNYADFVKGRFTISRDNSKKTVHLQMDNLNPEDTAVYYCKLEHDLGYYDYWGQGTQVTVSS
notes: as for B1
With B9, the EC50 in assay [4] is 1 nM and 0.5 nM.
